Test results reported in paper PMC3558595 (Integrative biology : quantitative biosciences from nano to …, 2013).

Biological target: the molecule itself
Experiment: FRET or BRET

B1: Wzm, transmembrane protein of the A-band polysaccharide ABC transporter of Pseudomonas aeruginosa, fused to GFP2 or YFP (natural protein, Pseudomonas aeruginosa PAO1, UniProt Q9HTB8 1-265, looked up)
chain: MLLGLSRSLWGYRGFVLGSVKREFQSRYRGSLFGALWTVLNPLSMIVVYTVIFSQVMRARLPGVDDGLAYSVYLCAGLLTWGLFAEITSRSQSMFIENANLLKKISFPRICLPVIVLLNAGVNFAIILALFLGFLALSGRLPGAALLALVPLLAIQVLFAAGLGMILGVLNVFFRDVGQLFGICLQFWFWLTPIVYPIGILPEGIRSLIELNPMTALMRSYQQLFLHGQWPDWPSLLPITLLALLLCALGLRLFRQRVGEMVDEL
stoichiometry N: 4
